Measurements taken from FireProtDB (doi:10.1093/jb/mvy087).

Details: Equus caballus; pH 7; Thermal; CD; CAPS buffer; transition: 2; reversible: yes

Chain of Cytochrome c wild type, P00004 (P00004 whole entry): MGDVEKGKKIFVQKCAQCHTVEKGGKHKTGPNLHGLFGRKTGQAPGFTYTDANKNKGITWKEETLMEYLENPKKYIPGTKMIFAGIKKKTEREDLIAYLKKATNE

## Cytochrome c wild type, P00004
  Tm: 83.4 °C
  heat capacity change of unfolding: 1.3 kcal/mol/K
  unfolding enthalpy (calorimetric): 76.7 kcal/mol
